# Data taken from IntAct's records for PubMed 16619024.
# B1: Translocon at the outer membrane of chloroplasts 64 (Pisum sativum (Garden pea)), Q9MUK5 (parent)
# chain: MKSMASPSSQIWVILGLGLAGIYVLTRKLTQAVKEDFGAFLLKLKLLPPPPPAPPKAPHPLSSLNFAISDIFDIEGHVSTFGHPEWARTHEPASSTASAVSALVESGATCIGTTVVDELAYGISGENKHFGTPTNPAVPNRVPGGSSSGAAVAVAANFVDFSLGVDTSGGVRVPAGFCGILGFRPSHGAVSHVGIIPVSTSLDTVGWFAKDPDVLRRVGHILLQAPFVMQRNPRQIIIADDCFQHLNVPLDRTSQVVIKATEKLFGKQVLKHINFEDYISSKVSSLKACSIQKSNGVLKSSSLKLLANVMQSLQRHEFEHTHSEWMSIVKPDLHPAVSAQLHEKFEVSELEIENSKSVRSELRVAVNSLLKDEGVLVIPTVADPPPKLGGKEFLSHDYQSRALSLLSIASISGCCQVTVPLGFFDKNPVSVSLIARHGGDRFLLDTLKTMYTVLQEQADIAAPSKSSKSVVSKEQSAEISKEKGNQAYKDKQWQKAIGFYTEAIKLCGNNATYYSNRAQAYLELGSYLQAEEDCTTAISFDKKNVKAYFRRGTAREMLGYYKEAIDDFKYALVLEPTNKRAASSAERLRKLFQ
# Variants of: B1
# Details: with hs704_arath HSP70-4, Q9LHA8
row,effect of a mutation on the interaction,Variant
1,decreasing interaction,MKSMASPSSQIWVILGLGLAGIYVLTRKLTQAVKEDFGAFLLKLKLLPPPPPAPPKAPHPLSSLNFAISDIFDIEGHVSTFGHPEWARTHEPASSTASAVSALVESGATCIGTTVVDELAYGISGENKHFGTPTNPAVPNRVPGGSSSGAAVAVAANFVDFSLGVDTSGGVRVPAGFCGILGFRPSHGAVSHVGIIPVSTSLDTVGWFAKDPDVLRRVGHILLQAPFVMQRNPRQIIIADDCFQHLNVPLDRTSQVVIKATEKLFGKQVLKHINFEDYISSKVSSLKACSIQKSNGVLKSSSLKLLANVMQSLQRHEFEHTHSEWMSIVKPDLHPAVSAQLHEKFEVSELEIENSKSVRSELRVAVNSLLKDEGVLVIPTVADPPPKLGGKEFLSHDYQSRALSLLSIASISGCCQVTVPLGFFDKNPVSVSLIARHGGDRFLLDTLKTMYTVLQEQADIAAPSKSSKSVVSKEQSAEISKEKGNQAYKDKQWQKAIGFYTEAIKLCGNNATYYSNRAQAYLELGSYLQAEEDCTTAISFDKKNVKAYFARGTAREMLGYYKEAIDDFKYALVLEPTNKRAASSAERLRKLFQ [R550A]
